Biological target: nDARC(Y)-Fc: N-terminal 60 residues of human DARC (FyB) with tyrosine at position 41, fused to the Fc region of human IgG1 (human) (UniProt Q16570)
Assay: BLI; nDARC(Y)-Fc immobilised via its Fc on Anti-human IgG Fc Capture biosensors (20 ug/ml, 600 s); PvDBPII 1-120 nM; 25 C; PBS with 1 mg/ml BSA; reference biosensors with human IgG1 Fc subtracted; 1:2 binding model and steady-state analysis; mean of two experiments

Recombinant Plasmodium vivax Duffy Binding Protein region II, variant Salvador I (PvDBPII SalI) (from UniProt P22290 211-525) (domain or fragment)
Kd: 8.8 nM

Recombinant Plasmodium vivax Duffy Binding Protein region II, variant PvW1 (PvDBPII PvW1) (from UniProt P22290 211-525) (domain or fragment)
Kd: 12 nM

From publication PMC10457348
